Laboratory results from the supplement of paper PMC10065799, “High-throughput profiling of sequence recognition by tyrosine kinases and SH2 domains using bacterial peptide display” (eLife, 2023).

How the values were obtained:
[1] = biological target: MERTK (UniProt Q12866); assay: phosphorylation enrichment, bacterial display (enrichment ratio); higher = better substrate or ligand; peptides without Tyr show the background
[2] = biological target: EPHB1 (UniProt P54762); assay: as above
[3] = biological target: Jak2 (UniProt O60674); assay: as above
[4] = test system: c-Src; assay: as above
[5] = biological target: Hck (UniProt P08631); assay: as above
[6] = biological target: FGFR1 (UniProt P11362); assay: as above
[7] = biological target: FGFR3 (UniProt P22607); assay: as above
[8] = biological target: Fes (UniProt P07332); assay: as above
[9] = biological target: Fyn (UniProt P06241); assay: as above
[10] = test system: c-Abl (mouse); assay: as above
[11] = biological target: EPHB2 (UniProt P29323); assay: as above
[12] = test system: Fer (mouse); assay: as above
[13] = test system: AncSZ; assay: as above
[14] = biological target: c-Src SH2; assay: SH2 binding enrichment of the phosphorylated peptide, bacterial display (enrichment ratio); higher = better substrate or ligand; peptides without Tyr show the background
[15] = biological target: Grb2 SH2 (UniProt P62993); assay: as above
[16] = biological target: SHP2-C SH2; assay: as above
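For SH2 binding enrichment of the phosphorylated peptide, bacterial display in this document: peptide library displayed on the E. coli surface as eCPX fusions, selected cells deep-sequenced, score is each peptide's frequency after selection divided by its frequency in the input.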
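For phosphorylation enrichment, bacterial display in this document: 11-residue human phosphosite peptides and single-mutation variants displayed on the E. coli surface, counted by deep sequencing, each peptide's frequency after selection divided by its frequency in the unselected input library; frequency after pTyr selection over input frequency; kinase dosed for 20-30% of maximal phosphorylation in three min.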

Chain of FGFR3 (P22607 whole entry, looked up): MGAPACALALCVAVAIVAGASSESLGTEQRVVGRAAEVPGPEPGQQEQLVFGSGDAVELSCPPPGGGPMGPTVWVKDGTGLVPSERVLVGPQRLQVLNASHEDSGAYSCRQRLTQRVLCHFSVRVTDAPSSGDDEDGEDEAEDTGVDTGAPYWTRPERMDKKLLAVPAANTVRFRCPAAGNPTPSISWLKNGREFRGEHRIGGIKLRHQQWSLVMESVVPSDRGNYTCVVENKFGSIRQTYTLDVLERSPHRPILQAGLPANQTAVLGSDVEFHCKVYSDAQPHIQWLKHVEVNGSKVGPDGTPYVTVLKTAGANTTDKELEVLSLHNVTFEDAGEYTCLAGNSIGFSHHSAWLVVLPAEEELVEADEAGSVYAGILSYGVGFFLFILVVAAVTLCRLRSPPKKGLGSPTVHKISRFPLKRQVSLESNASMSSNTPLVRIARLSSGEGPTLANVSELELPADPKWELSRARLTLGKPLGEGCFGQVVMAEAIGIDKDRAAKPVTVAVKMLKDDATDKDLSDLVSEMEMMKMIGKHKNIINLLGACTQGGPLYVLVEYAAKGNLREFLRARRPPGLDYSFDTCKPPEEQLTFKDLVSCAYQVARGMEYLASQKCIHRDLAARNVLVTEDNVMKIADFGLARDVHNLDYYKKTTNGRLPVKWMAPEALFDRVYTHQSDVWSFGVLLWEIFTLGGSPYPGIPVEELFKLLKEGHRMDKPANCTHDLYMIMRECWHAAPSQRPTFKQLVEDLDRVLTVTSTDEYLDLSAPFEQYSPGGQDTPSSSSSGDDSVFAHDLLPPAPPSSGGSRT
Chain of Jak2 (O60674 whole entry, looked up): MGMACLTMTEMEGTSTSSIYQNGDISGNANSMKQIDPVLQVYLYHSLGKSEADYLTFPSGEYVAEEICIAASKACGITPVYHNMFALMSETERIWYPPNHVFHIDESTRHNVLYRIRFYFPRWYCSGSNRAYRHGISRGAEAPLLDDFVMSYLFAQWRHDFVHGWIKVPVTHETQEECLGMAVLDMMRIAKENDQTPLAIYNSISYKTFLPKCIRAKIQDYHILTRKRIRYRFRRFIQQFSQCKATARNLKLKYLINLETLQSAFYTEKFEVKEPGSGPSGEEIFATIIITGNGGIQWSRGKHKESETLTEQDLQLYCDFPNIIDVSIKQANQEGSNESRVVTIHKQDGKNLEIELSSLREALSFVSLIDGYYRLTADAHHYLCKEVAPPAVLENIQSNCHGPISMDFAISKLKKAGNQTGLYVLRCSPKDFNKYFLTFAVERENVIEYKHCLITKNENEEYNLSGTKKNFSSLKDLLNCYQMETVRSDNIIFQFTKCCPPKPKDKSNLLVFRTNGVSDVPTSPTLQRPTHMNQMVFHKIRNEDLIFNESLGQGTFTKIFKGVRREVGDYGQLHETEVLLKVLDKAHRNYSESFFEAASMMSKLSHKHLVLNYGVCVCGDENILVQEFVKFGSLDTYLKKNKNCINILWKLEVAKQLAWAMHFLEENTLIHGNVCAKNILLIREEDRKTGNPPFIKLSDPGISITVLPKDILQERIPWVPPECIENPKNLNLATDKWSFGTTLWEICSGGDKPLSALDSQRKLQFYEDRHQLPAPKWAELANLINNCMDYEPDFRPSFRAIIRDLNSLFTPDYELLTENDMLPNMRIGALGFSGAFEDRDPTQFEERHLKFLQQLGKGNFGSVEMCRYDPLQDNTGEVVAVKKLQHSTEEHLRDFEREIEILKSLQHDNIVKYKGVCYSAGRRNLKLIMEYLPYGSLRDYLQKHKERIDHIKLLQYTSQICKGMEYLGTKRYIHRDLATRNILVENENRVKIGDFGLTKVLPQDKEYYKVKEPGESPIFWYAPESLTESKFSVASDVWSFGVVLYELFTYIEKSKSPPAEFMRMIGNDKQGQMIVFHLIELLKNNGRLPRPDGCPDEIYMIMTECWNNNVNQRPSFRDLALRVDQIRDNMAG
Chain of EPHB1 (P54762 whole entry, looked up): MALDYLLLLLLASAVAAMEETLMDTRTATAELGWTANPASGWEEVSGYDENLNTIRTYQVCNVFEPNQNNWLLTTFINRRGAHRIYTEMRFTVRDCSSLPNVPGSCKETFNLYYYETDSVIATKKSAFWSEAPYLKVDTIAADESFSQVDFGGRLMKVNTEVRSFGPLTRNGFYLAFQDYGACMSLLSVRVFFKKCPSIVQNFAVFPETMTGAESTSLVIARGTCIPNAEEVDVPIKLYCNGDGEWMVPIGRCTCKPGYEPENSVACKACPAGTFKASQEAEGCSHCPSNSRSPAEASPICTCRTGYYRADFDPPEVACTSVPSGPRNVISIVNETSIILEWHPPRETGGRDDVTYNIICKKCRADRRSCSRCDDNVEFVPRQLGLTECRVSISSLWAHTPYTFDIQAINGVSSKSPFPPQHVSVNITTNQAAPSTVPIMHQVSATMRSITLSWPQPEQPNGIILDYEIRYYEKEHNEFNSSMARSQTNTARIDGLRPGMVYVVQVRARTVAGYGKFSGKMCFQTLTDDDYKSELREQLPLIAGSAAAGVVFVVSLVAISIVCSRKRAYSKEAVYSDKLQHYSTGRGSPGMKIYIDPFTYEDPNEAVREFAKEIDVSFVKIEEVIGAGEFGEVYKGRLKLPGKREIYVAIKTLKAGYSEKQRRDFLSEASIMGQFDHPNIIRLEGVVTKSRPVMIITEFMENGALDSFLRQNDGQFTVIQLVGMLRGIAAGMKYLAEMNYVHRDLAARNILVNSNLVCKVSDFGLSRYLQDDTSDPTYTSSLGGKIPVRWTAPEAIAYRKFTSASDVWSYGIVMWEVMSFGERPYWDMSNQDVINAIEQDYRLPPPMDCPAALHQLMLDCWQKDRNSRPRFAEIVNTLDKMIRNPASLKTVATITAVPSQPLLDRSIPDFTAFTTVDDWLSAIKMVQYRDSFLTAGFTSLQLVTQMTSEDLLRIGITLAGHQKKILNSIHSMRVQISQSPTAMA
Chain of MERTK (Q12866 whole entry, looked up): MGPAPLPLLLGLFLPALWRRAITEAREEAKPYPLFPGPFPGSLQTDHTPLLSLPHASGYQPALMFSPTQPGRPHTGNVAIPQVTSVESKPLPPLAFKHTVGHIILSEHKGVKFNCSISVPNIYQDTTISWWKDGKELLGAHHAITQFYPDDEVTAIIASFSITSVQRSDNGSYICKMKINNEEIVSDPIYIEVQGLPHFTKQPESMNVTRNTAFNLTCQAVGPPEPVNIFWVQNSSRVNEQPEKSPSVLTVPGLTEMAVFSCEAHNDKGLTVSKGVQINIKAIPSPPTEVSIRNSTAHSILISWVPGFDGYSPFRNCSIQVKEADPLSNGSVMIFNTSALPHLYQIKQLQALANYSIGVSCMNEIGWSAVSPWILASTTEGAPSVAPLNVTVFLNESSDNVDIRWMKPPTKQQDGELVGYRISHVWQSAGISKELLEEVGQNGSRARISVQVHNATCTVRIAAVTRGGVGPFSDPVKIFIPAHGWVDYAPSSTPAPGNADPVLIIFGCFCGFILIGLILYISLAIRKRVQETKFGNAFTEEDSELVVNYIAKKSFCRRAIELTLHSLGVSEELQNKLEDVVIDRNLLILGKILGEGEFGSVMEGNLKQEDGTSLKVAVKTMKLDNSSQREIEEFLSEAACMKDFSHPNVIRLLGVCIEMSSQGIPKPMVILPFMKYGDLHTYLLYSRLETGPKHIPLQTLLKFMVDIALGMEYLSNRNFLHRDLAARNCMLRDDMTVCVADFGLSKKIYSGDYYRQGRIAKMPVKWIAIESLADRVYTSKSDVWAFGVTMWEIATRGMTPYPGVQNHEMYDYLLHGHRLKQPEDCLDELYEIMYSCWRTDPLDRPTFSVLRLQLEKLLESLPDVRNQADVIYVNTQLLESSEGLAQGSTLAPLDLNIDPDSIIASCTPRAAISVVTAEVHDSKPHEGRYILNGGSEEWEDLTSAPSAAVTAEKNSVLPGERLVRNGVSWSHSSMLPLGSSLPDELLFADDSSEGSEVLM
Chain of FGFR1 (P11362 whole entry, looked up): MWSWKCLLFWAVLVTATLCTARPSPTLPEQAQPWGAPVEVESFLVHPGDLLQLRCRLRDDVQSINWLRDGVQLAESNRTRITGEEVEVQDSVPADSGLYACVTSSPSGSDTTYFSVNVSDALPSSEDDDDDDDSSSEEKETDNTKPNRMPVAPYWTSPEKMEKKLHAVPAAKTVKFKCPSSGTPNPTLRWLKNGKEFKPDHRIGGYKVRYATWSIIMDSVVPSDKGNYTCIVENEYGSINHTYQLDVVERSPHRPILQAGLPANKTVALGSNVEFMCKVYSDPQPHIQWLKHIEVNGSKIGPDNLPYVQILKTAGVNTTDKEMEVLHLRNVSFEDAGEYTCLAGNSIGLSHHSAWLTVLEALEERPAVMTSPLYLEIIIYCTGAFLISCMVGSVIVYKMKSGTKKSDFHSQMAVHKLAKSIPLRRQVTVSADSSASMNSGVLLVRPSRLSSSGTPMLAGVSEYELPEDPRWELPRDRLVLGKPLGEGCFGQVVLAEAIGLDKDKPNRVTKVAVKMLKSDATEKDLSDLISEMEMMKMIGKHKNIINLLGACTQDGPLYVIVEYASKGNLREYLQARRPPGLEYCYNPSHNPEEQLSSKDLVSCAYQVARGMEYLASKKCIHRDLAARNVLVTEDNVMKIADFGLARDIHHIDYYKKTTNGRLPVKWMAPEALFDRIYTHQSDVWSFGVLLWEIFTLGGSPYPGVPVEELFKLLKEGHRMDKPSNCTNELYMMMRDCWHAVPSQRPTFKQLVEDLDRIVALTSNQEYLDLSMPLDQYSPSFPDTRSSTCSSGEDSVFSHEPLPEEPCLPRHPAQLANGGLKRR

SH2 binding enrichment [14]	SH2 binding enrichment [15]	SH2 binding enrichment [16]	Sequence	phosphorylation enrichment [1]	phosphorylation enrichment [2]	phosphorylation enrichment [3]	phosphorylation enrichment [4]	phosphorylation enrichment [5]	phosphorylation enrichment [6]	phosphorylation enrichment [7]	phosphorylation enrichment [8]	phosphorylation enrichment [9]	phosphorylation enrichment [10]	phosphorylation enrichment [11]	phosphorylation enrichment [12]	phosphorylation enrichment [13]
7.7	0.869	0.786	ITKQEYDEAGP [ACTA1_Y364]	0.423	0.553	0.881	0.422	0.51	0.475	0.689	1.08	0.563	0.679	0.488	0.494	1.14
0.757	0.884	1.15	HLVLNYGVCFC [JAK2_Y613_V617F]	0.575	1.67	1.53	0.914	1.04	1.2	1.77	2.32	1.11	1.29	2.33	0.982	2.91
0.585	0.942	0.682	CTLTHYKSAVK [ASNS_Y555_R550C]	0.428	0.564	0.689	0.408	0.518	0.514	0.529	0.749	0.387	0.529	0.431	0.51	0.807
0.536	0.879	0.798	SFGMVYEGNAR [INSR_Y1038]	0.323	0.479	0.672	0.966	0.784	0.41	0.474	0.775	0.526	0.616	0.413	0.377	0.629
0.562	0.916	0.571	EWKNNCPRLRE [OPA1_Y582_Y582C]	0.415	0.492	0.81	0.411	0.472	0.508	0.654	1.13	0.395	0.592	0.582	0.433	0.9
0.445	0.796	0.733	LSTPEYGPKLK [TBC1D14_Y46_A43T]	0.532	0.47	0.569	0.494	0.417	0.465	0.506	0.574	0.527	0.57	0.496	0.461	0.673
2.21	4.43	0.706	MNKNAYHNVTT [ST3GAL6_Y306_A311T]	0.412	0.358	0.434	0.364	0.385	0.358	0.495	0.426	0.34	0.525	0.352	0.322	0.497
1.8	0.885	1.72	LVRPPYSYSAL [FOXI1_Y126]	2.06	1.07	1.03	0.704	0.528	0.572	0.713	0.862	0.722	0.641	0.568	0.619	0.952
0.373	0.717	0.551	VATRWYRSLEL [CDKL5_Y177_P180L]	0.366	0.447	0.576	0.314	0.432	0.436	0.473	0.742	0.385	0.468	0.368	0.357	0.825
1.75	1.73	1.92	CTTIHYNFMCH [TP53_Y234_N239H_YF]	0.444	0.558	0.75	0.471	0.441	0.507	0.552	0.97	0.533	0.543	0.547	0.478	0.866
0.52	0.806	0.572	GLRCGYGVLGG [KRTAP20-2_Y15_Y13C]	0.359	0.484	0.825	0.73	0.432	0.381	0.612	0.854	0.466	0.617	0.387	0.484	0.775
0.364	0.665	0.714	VRHRRYKHTHE [CTCF_Y343]	0.684	0.55	0.643	0.788	0.631	0.743	0.603	0.654	0.613	0.816	0.622	0.584	0.759
0.522	0.596	0.444	NLMPAYYKCIQ [CYP21A2_Y190]	0.57	0.708	1.34	0.51	0.507	0.57	0.866	1.28	0.432	1.24	0.496	0.626	1.09
0.447	0.689	0.889	VQNIVYRTASI [CYP39A1_Y102]	0.334	0.335	0.581	0.356	0.36	0.414	0.442	0.619	0.382	0.467	0.396	0.34	0.706
0.386	0.618	0.628	VKMLEYRGKDV [CASP5_Y74_L75R]	0.443	0.459	0.792	0.465	0.46	0.489	0.473	0.737	0.476	0.523	0.416	0.495	0.68
0.512	1.12	0.708	LAVPLYKNGVK [CPS1_Y1069]	1.42	1.09	0.933	0.416	0.574	0.904	0.836	0.856	0.777	0.777	1.67	1.04	1.23
0.502	0.806	0.661	FSGDCYRIQGR [DDR2_Y741_Y740C_YF]	0.35	0.593	0.764	0.45	0.472	0.431	0.666	1.05	0.446	0.636	0.659	0.493	0.989

SH2 binding enrichment [14]	SH2 binding enrichment [15]	SH2 binding enrichment [16]	Sequence	phosphorylation enrichment [1]	phosphorylation enrichment [2]	phosphorylation enrichment [3]	phosphorylation enrichment [4]	phosphorylation enrichment [5]	phosphorylation enrichment [6]	phosphorylation enrichment [7]	phosphorylation enrichment [8]	phosphorylation enrichment [9]	phosphorylation enrichment [10]	phosphorylation enrichment [11]	phosphorylation enrichment [12]	phosphorylation enrichment [13]
0.483	0.761	0.608	TLNTNYHLPPS [MT-ATP8_Y33_M28T]	0.57	1.37	0.485	0.403	0.343	2.51	1.69	0.587	0.47	0.655	0.451	0.372	0.698
1.3	0.913	1.01	PVQAVYQKVVA [HBB_Y131_A130V]	1.47	0.727	0.289	1.61	1.75	0.421	0.617	0.532	0.677	0.203	0.578	1.14	0.373
0.501	0.899	0.523	NKPTVYGVSPN [ABL1_Y226]	0.395	0.399	0.478	0.659	0.603	0.376	0.446	0.623	0.55	0.67	0.373	0.443	0.547
1.12	1.93	1.86	IHFAIYFLKFS [ARMC9_Y107_L108F_YF]	0.406	0.473	0.636	0.434	0.561	0.441	0.674	0.956	0.448	0.636	0.576	0.485	0.835
0.678	0.792	1.37	LTERDYSFVTT [ACTG2_Y199_G198D]	1.26	2.38	1.27	0.977	1.62	7.67	4.74	1.6	1.93	0.888	3.51	2.82	2.56
0.363	0.743	0.738	QKMFDYLKEKK [RYR2_Y3780_L3778F]	0.403	0.558	0.805	0.471	0.471	0.459	0.595	0.958	0.445	0.763	0.438	0.574	0.797
1.39	0.806	0.695	PVPKTYDMLKA [PKP2_Y108]	0.648	1.2	1.92	0.861	1.46	0.766	0.707	1.02	0.764	1.01	0.541	0.577	1.07
0.452	0.931	0.496	GIADDYDKKKL [EIF1_Y54]	0.383	0.456	0.845	0.377	0.512	0.465	0.565	0.943	0.467	0.667	0.565	0.4	0.882
1.22	1.11	1.13	QNTGDYCDLYG [PTPN11_Y62_Y63C]	0.633	9.03	1.35	1.84	2.08	5.87	4.13	1.08	1.49	1.34	7.83	1.39	2.75
0.601	0.925	0.563	HSGIYYKPESL [L2HGDH_Y103]	9.79	6.97	2.35	3.78	6.44	5.66	4.95	0.984	4.78	27.1	6.24	0.613	1.59
0.334	0.681	0.446	LNECHYGALIG [BPGM_Y92_R90C]	0.741	0.682	0.885	3.61	2.93	0.701	0.886	1.38	4.07	1.4	0.878	1.35	0.996
6.03	1.2	2.73	CTSIHYNYMCN [TP53_Y234_T231S]	0.448	0.99	0.733	0.5	0.514	0.67	0.591	0.805	0.42	0.535	0.63	0.676	0.842
1.59	0.821	0.941	ANKNVYEVEPT [MEGF10_Y1075_R1072K]	1.04	0.516	0.848	2.9	0.798	0.383	0.7	0.938	4.42	0.6	0.492	0.36	0.823
0.443	0.666	0.826	MYVKSYTIHYS [F5_Y2153]	0.446	0.723	0.86	0.425	0.516	0.542	0.815	1.17	0.492	0.674	0.732	0.508	1.03
2.53	1.03	0.892	CQKRKYIEIDS [SDAD1_Y580_S575C]	0.38	0.513	0.616	0.479	0.48	0.55	0.6	0.814	0.485	0.446	0.505	0.431	0.657
0.473	0.808	0.393	EFGEVYKGTLK [EPHA2_Y628_M631T]	0.362	0.539	0.425	0.376	0.398	0.386	0.426	0.549	0.373	0.521	0.409	0.448	0.603
